Experiments:
Test in all cases: single-molecule on-chip NAA recognition-only assay; immobilized peptide, dye-labeled recognizer in solution
[1] = molecular target: peptide with N-terminal IAA (C-terminal azidolysine conjugated to DNA-streptavidin linker)
Method: (§1) The semiconductor chip was placed in the sequencing device and a chip check was performed to test electronic circuit function and to optimize laser coupling alignment. The chip was then removed from the device socket and the chip was washed twice with 50 μL of 70% isopropanol, followed by four washes with 30 μL of wash buffer (50 mM MOPS pH 8.0, 60 mM potassium acetate, 50 mM glucose, 20 mM magnesium acetate, and surfactant mix) through a flow cell attached to the chip. A second chip check was then performed. The laser was then blocked via an integrated software-controlled shutter, peptide complex was added to a final concentration of 1-10 nM and mixed thoroughly, and the chip was incubated for 15 min. The chip was then washed six times with wash buffer, followed by addition of an imaging solution (wash buffer with 5 mM Trolox and an oxygen scavenging system). The laser was unblocked and the occupancy percentage (target 10-30%, Poisson distributed) was recorded by acquiring a photobleaching signal from a fluorophore attached to the peptide complex during 5 min of laser illumination. For NAA recognition-only assays, after peptide loading, labeled recognizer was added to a final concentration of 50 nM PS610, 100 nM PS691, or 250 nM PS961 (as indicated according to the experiment), and data was recorded for 10 hours. For dynamic sequencing assays, after peptide loading, a mixture of labeled recognizers was added to obtain final concentrations of 50 nM PS610, 100 nM PS691, and 250 nM PS961. Data was recorded for 15 min. The laser was then blocked briefly and aminopeptidases were added to the sequencing reaction via the flow cell and mixed thoroughly (final concentration 2-8 μM PhTET2 and/or 20-80 μM PhTET3, as indicated according to the experiment). The laser was then unblocked, and data was recorded for 10 hours. For all runs, 30 μL of mineral oil was added to fluid reservoirs at each port of the flow cell to prevent evaporation during the run.

[2] = molecular target: peptide with N-terminal LAA (C-terminal azidolysine conjugated to DNA-streptavidin linker)
Method: as §1

[3] = molecular target: peptide with N-terminal VAA (C-terminal azidolysine conjugated to DNA-streptavidin linker)
Method: as §1

B1: PS961 (designed binder)
chain: MPTAASATESAIEDTPAPARPEVDGRTKPKRQPRYHVVLWDDDDHTYQYVVVMLRSLFGHPPSRGYRMAKEMDTQGRVIVLTTTREHAELKRDQIHAFGRDRLLARSKGSMKASIEAEE
notes: also called PS961 (L, I, V); PS961 (LIV)
- median pulse duration (PD) [1]: 0.28 s
- median pulse duration (PD) [2]: 1.21 s
- median pulse duration (PD) [3]: 0.21 s

Source: patent publication US20230213527A1 (QUANTUM SI, published 2023)
